Measured values from article PMC10404610 (Biochemistry and Biophysics Reports, 2023).
No end group written: not given here.

Tests used:
CCL21 [1] = target: CCL21 (UniProt O00585); test: NMR titration
CCL21 [2] = target: T1, CCL21 (Homo sapiens, UniProt O00585); test: 2D 15N-1H HSQC NMR titration of [U-15N] CCL21 with PSGL1 1–15 peptide; type: binding
T1 sequence (O00585 24-134): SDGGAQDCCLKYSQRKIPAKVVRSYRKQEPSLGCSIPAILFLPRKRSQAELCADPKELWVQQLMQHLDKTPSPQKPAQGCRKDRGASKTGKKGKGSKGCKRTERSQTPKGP

## PSGL1 residues 1-15 peptide
CCL21 [1]
  Kd: 300 µM

## QTAEYEYLDYDFLPE [PSGL1 peptide]
CCL21 [2]
  Kd: 300 ± 100 µM
